Source: US20250216381A1 (published 2025)

Legend:
Assay in all cases: activation reporter or marker
[1] = biological target: T1, HELZ2 P775A peptide on HLA-DPA1*01:03 / HLA-DPB1*104:01 (human)
T1 peptide: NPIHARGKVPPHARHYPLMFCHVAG

[2] = biological target: T2, HELZ2 P775A peptide on HLA-DPA1*03:01 / HLA-DPB1*104:01 (human)
T2 peptide: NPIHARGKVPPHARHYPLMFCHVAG

[3] = biological target: T3, ARHGEF16 R150W peptide on HLA-DRA*01:01 / HLA-DRB1*11:01 (human)
T3 peptide: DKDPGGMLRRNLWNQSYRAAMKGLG

[4] = biological target: T4, ERGIC2 L176P peptide on HLA-A*03:01 (human)
T4 peptide: RIHGHPYVNK

B1: 6932-TCR5 (TCR, V domains shown)
Valpha: RKEVEQDPGPFNVPEGATVAFNCTYSNSASQSFFWYRQDCRKEPKLLMSVYSSGNEDGRFTAQLNRASQYISLLIRDSKLSDSATYLCVVKNQGGKLIFGQGTELSVKP
Vbeta: GVTQTPRYLIKTRGQQVTLSCSPISGHRSVSWYQQTPGQGLQFLFEYFSETQRNKGNFPGRFSGRQFSNSRSEMNVSTLELGDSALYLCASILGGGRGDTQYFGPGTRLTVL
[1]
  binding result: recognises
[2]
  binding result: recognises

B2: 8434-TCR21 (TCR, V domains shown)
Valpha: KQEVTQIPAALSVPEGENLVLNCSFTDSAIYNLQWFRQDPGKGLTSLLLIQSSQREQTSGRLNASLDKSSGRSTLYIAASQPGDSATYLCAVRRDGTASKLTFGTGTRLQVTL
Vbeta: AVVSQHPSWVICKSGTSVKIECRSLDFQATTMFWYRQFPKQSLMLMATSNEGSKATYEQGVEKDKFLINHASLTLSTLTVTSAHPEDSSFYICSASFPGRGNEQFFGPGTRLTVL
[3]
  binding result: recognises

B3: 2599-TCR12 (TCR, V domains shown)
Valpha: EDKVVQSPLSLVVHEGDTVTLNCSYEVTNFRSLLWYKQEKKAPTFLFMLTSSGIEKKSGRLSSILDKKELFSILNITATQTGDSAIYLCGGLNAGGTSYGKLTFGQGTILTVHP
Vbeta: EPEVTQTPSHQVTQMGQEVILRCVPISNHLYFYWYRQILGQKVEFLVSFYNNEISEKSEIFDDQFSVERPDGSNFTLKIRSTKLEDSAMYFCASLGASTYEQYFGPGTRLTVT
[4]
  binding result: recognises

B4: 8434-TCR23 (TCR, V domains shown)
Valpha: QQQVKQSPQSLIVQKGGISIINCAYENTAFDYFPWYQQFPGKGPALLIAIRPDVSEKKEGRFTISFNKSAKQFSLHIMDSQPGDSATYFCAASRASGGSYIPTFGRGTSLIVHP
Vbeta: GITQSPKYLFRKEGQNVTLSCEQNLNHDAMYWYRQDPGQGLRLIYYSQIVNDFQKGDIAEGYSVSREKKESFPLTVTSAQKNPTAFYLCATKILAGANTGELFFGEGSRLTVL
[3]
  binding result: recognises

B5: 8434-TCR20 (TCR, V domains shown)
Valpha: KQEVTQIPAALSVPEGENLVLNCSFTDSAIYNLQWFRQDPGKGLTSLLLIQSSQREQTSGRLNASLDKSSGRSTLYIAASQPGDSATYLCAVRHSGNTPLVFGKGTRLSVIA
Vbeta: AVVSQHPSRVICKSGTSVKIECRSLDFQATTMFWYRQFPKQSLMLMATSNEGSKATYEQGVEKDKFLINHASLTLSTLTVTSAHPEDSSFYICSASGGGRTEAFFGQGTRLTVV
[3]
  binding result: recognises
